These results are taken from US20240165209A1, “PLACENTAL ALKALINE PHOSPHATASE FOR REDUCING THE LOSS OF RED BLOOD CELLS, WHITE BLOOD CELLS, AND PLATELETS IN CHEMOTHERAPY TREATED CANCER PATIENTS” (ZOLTAN LABORATORIES, LLC, priority 2021, published 2024).

The test system of data set [1] is bone marrow MSCs. Briefly: DNA synthesis ([3H]thymidine incorporation) in MSCs. In kind it is cell-based, human. The note with it: 20 hours. The text has this:
For the experiment, bone marrow aspirates were taken from normal human adult donors after informed consent. For the preparation of bone marrow MSCs, essentially a widely used technique was used as described earlier by others [Pittenger, M. F., Mackay, A. M., Beck, S. C., et al. (1999) Multilineage potential of adult human mesenchymal stem cells. Science 284, 143-147]. Briefly, nucleated cells were isolated with a pre-prepared commercial density gradient (Lymphoprep, Nycomed, Pharma, Oslo, Norway) and re-suspended in Dulbecco's modified Eagle's medium (DMEM) (GIBCO, Grand Island, NY) supplemented with 10% fetal calf serum (FCS), 50 U/ml of penicillin, and 50 μg/ml of streptomycin (GIBCO). All nucleated cells were plated in 25-cm^2 flasks (BD Falcon, Bedford, MA) at 37° C. in humidified atmosphere containing 5% CO2. After 24 hours, non-adherent cells were removed and cryopreserved in liquid nitrogen until use. The remaining adherent cells were thoroughly washed with Hanks balanced salt solution (HBSS) (GIBCO). Fresh complete culture medium was added and replaced every 3 or 4 days (twice a week). When cells grew to about 80% confluence, they were suspended and harvested by incubating with a ready-made solution containing 0.25% trypsin and 1 mM EDTA (Sigma-Aldrich, St. Louis, MO) for 5 minutes at 37° C.; this cell suspension is designated as passage 1. These cells were further expanded with 1:3-1:5 splitting in 175-cm^2 flasks (BD Falcon). For the determination of DNA synthesis, cells were divided into 12-well plates in the complete medium and let the cells grow to about 60% confluence. After changing the spent medium for fresh complete medium (i.e., containing 10% fetal calf serum), cells were treated for 20 hours with 20-100 μM ATP and/or 200 nM PLAP as well as 50-200 μM Cyp in the absence or presence of 200 nM PLAP. For labeling newly formed DNA, cells received 1,130,000 d.p.m. [^3H] thymidine for the last 4 hours of the treatment period. DNA synthesis was determined as described earlier [She, Q.-B., Mukherjee, J. J., Huang, J.-S., Crilly, K. S. and Kiss, Z. (2000) Growth factor-like effects of placental alkaline phosphatase in human fetus and mouse embryo fibroblasts. FEBS Lett. 469, 163-167]. The data is expressed as d.p.m. [^3H] thymidine incorporated into DNA/well (n=3).

For data set [2] the following is noted: amifostine treatment, intravenous route, cancer patients; cited from earlier work.
Data set [3] deals with mouse bone marrow-derived hematopoietic stem cells (HSCs). To be noted: 3 days. Here is the method: Bone marrow was harvested by flushing bones from female C57/BL/6 mice in Fischer medium (Thermo Fisher Scientific; catalogue no. 21475025) containing 20% horse serum (Hyclone, Logan, UT), 100 Unit/ml penicillin, […] streptomycin (Gibco, BRL), 0.015 fungizone (Gibco, BRL), and 0.1 μM hydrocortisone sodium succinate (SynoPharm; Hamburg, Germany). Pooled stem cells were seeded into 25 cm 3 flasks (10 ml cell suspension) and after 3 days of incubation at 33° C. in 5% CO2 in air in the absence of PLAP, they were plated into 12-well plates and were incubated in the absence (n=8) or presence of 50 μg/ml PLAP (n=8) for additional 3 days.
In a follow up experiment with hematopoietic stem cells, the same incubation medium in 12-well plates contained either no other addition (n=8) or contained 200 μM Cyp without (n=8) or with 50 μg/ml PLAP (n=8) for 3 days.

The nature of data set [4]: Spectrophotometric assay of PLAP enzyme activity (hydrolysis of 4-nitrophenylphosphate). It counts as biochemical. The note with it: 22° C., pH 9.8, 10 mM 4-nitrophenylphosphate. An excerpt: Human PLAP (Type XXIV, 1020 units of total activity) in a partially purified form was obtained commercially from Sigma-Aldrich. A butanol extraction of placental tissue performed by Sigma-Aldrich to obtain the partially purified material was followed by chromatography steps as described in [Chang, T.-C., Huang, S.-M, Huang, T.-M. and Chang, G.-G. Human placental alkaline phosphatase: An improved purification procedure and kinetic studies. Eur. J. Biochem. 209, 241-247, 1992] to obtain an essentially pure preparation of PLAP as determined by sodium dodecyl sulfate-polyacrylamide gel electrophoresis (SDS-PAGE). The enzyme activity of PLAP was assayed using a spectroscopic method to monitor the hydrolysis of 4-nitrophenylphosphate (as an increase in absorbance at 410 nm) at room temperature (22° C.) as described in [Chang, G.-G., Shiao, M.-S., Lee, K.-R. and Wu, J.-J., Modification of human placental alkaline phosphatase by periodate-oxidized 1,N6-ethenoadenosine monophosphate. Biochem. J., 272, 683-690, 1990]. Activity analysis of 5-10-μg purified enzyme was performed in 1 mL incubation volume containing 50 mM Na2CO3/NaHCO3, 10 mM MgCl2, 10 mM 4-nitrophenylphosphate at pH 9.8. The extinction coefficient of 4-nitrophenol was taken as 1.62×10^4 M^−1 cm^−1. An enzyme activity of 1 U (unit) is defined as 1 μmole substrate hydrolyzed per 1 min at 22° C. at pH 9.8. […]

The conditions of data set [5]: purified PLAP; cited from earlier work.

With `Nc1ncnc2c1ncn2[C@@H]1O[C@H](COP(=O)(O)OP(=O)(O)OP(=O)(O)O)[C@@H](O)[C@H]1O` [ATP], the “d.p.m. [^3H] thymidine incorporated into DNA/well” value is given as 70,738 ± 1,367 d.p.m in data set [1] (ATP 20 μM, no PLAP); 55,808 ± 1,480 d.p.m in data set [1] (ATP 50 μM, no PLAP); 38,601 ± 1,940 d.p.m in data set [1] (ATP 100 μM, no PLAP).
In the case of `NCCCNCCSP(=O)(O)O` [amifostine], in data set [2], the “patients with reversible clinical hypotension, protracted nausea and vomiting” value is 15-20%.

B1: PLAP: highly purified native placental alkaline phosphatase derived from human placenta via conventional purification methods (protein, UniProt P05187 23-506, looked up)
Alkaline phosphatase, …: IIPVEEENPDFWNREAAEALGAAKKLQPAQTAAKNLIIFLGDGMGVSTVTAARILKGQKKDKLGPEIPLAMDRFPYVALSKTYNVDKHVPDSGATATAYLCGVKGNFQTIGLSAAARFNQCNTTRGNEVISVMNRAKKAGKSVGVVTTTRVQHASPAGTYAHTVNRNWYSDADVPASARQEGCQDIATQLISNMDIDVILGGGRKYMFRMGTPDPEYPDDYSQGGTRLDGKNLVQEWLAKRQGARYVWNRTELMQASLDPSVTHLMGLFEPGDMKYEIHRDSTLDPSLMEMTEAALRLLSRNPRGFFLFVEGGRIDHGHHESRAYRALTETIMFDDAIERAGQLTSEEDTLSLVTADHSHVFSFGGYPLRGSSIFGLAPGKARDRKAYTVLLYGNGPGYVLKDGARPDVTESESGSPEYRQQSAVPLDEETHAGEDVAVFARGPQAHLVHGVQEQTFIAHVMAFAACLEPYTACDLAPPAGTTD
As to B1, the “change of the number of hematopoietic stem cells” value in data set [3] (50 μg/ml PLAP, no Cyp) is listed as “did not significantly change”. Further, the “decrease of the number of cells by Cyp” value in data set [3] (200 μM Cyp, presence of 50 μg/ml PLAP) was 10%. Moreover, in data set [4], the “specific activity of purified PLAP” value turned out to be 685 Units per mg protein. Further, the “half-life time in human circulation” value in data set [5] is “about 7 days”. The “d.p.m. [^3H] thymidine incorporated into DNA/well” value in data set [1] (PLAP 200 nM + ATP 20 μM) is listed as 90,708 ± 2,518 d.p.m; in data set [1] (PLAP 200 nM + ATP 50 μM), 84,740 ± 3,231 d.p.m; in data set [1] (PLAP 200 nM + ATP 100 μM), 80,916 ± 2,252 d.p.m; in data set [1] (PLAP 200 nM + Cyp 50 μM), 81,887 ± 3,173 d.p.m; in data set [1] (PLAP 200 nM + Cyp 200 μM), 74,798 ± 2,408 d.p.m; in data set [1] (PLAP 200 nM, no ATP), 89,865 ± 2,021 d.p.m.
